This note sets out measurements from publication PMC4513098, “Ordered Regions of Channel Nucleoporins Nup62, Nup54, and Nup58 Form Dynamic Complexes in Solution*” (The Journal of Biological Chemistry, 2015).

The target of the test is T1, Nup58(239–415), entire ordered region of Nup58 from Rattus norvegicus, His6 tag cleaved (Rattus norvegicus, UniProt P70581 239-415).
T1 construct: Nup58, Rattus norvegicus, residues 239-415 (entire ordered region); source: co-expressed with Nup54 and Nup62 from a polycistronic vector; not shown: His6, N-terminal, cleaved
T1 sequence: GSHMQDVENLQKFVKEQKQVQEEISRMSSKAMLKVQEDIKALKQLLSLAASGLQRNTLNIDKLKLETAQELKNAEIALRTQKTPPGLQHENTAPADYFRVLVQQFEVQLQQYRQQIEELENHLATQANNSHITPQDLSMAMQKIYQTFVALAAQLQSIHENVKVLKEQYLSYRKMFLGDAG
The test can be described thus: SEC; competition: preassembled triple complex (1.5 mg/ml) incubated with Nup54 (453–494) wild type or H469F/Q473L (0.6 mg/ml), then size-exclusion chromatography and SDS-PAGE of column fractions. Conditions: both partners purified. In general terms: SEC sorts molecules by how far they enter the pores of the column.

B1: wild-type Nup54 (453–494), Nup58-cognate segment of Nup54 (domain or fragment, Rattus norvegicus, UniProt P70582 453-494, looked up)
chain: EEKYYIDADLLREIKQHLKQQQEGLSHLISIIKDDLEDIKLV
notes: also called Nup54 segment; wt Nup54 (453–494)
B1: the binding result is recorded as “binds”.
